Measurements taken from paper PMC9727157, “The transmembrane domains mediate oligomerization of the human ZIP4 transporter in vivo” (Scientific Reports, 2022).

Biological target: the molecule itself
Assay: fluorescence correlation spectroscopy (FCS) with molecular brightness analysis; living transfected HEK293 cells, upper plasma membrane centred in the confocal volume; 23 °C, HEPES-buffered MEM without phenol red; 100 s (10 x 10 s); brightness compared with CD-86/eGFP (monomer) and CD-86/eGFP/eGFP (tandem, dimer) controls

B1: full-length human ZIP4 tagged with eGFP (hZIP4/eGFP) (natural protein, UniProt Q6P5W5 23-647, looked up)
chain: SPPAGLLSLLTSGQGALDQEALGGLLNTLADRVHCANGPCGKCLSVEDALGLGEPEGSGLPPGPVLEARYVARLSAAAVLYLSNPEGTCEDARAGLWASHADHLLALLESPKALTPGLSWLLQRMQARAAGQTPKMACVDIPQLLEEAVGAGAPGSAGGVLAALLDHVRSGSCFHALPSPQYFVDFVFQQHSSEVPMTLAELSALMQRLGVGREAHSDHSHRHRGASSRDPVPLISSSNSSSVWDTVCLSARDVMAAYGLSEQAGVTPEAWAQLSPALLQQQLSGACTSQSRPPVQDQLSQSERYLYGSLATLLICLCAVFGLLLLTCTGCRGVTHYILQTFLSLAVGAVTGDAVLHLTPKVLGLHTHSEEGLSPQPTWRLLAMLAGLYAFFLFENLFNLLLPRDPEDLEDGPCGHSSHSHGGHSHGVSLQLAPSELRQPKPPHEGSRADLVAEESPELLNPEPRRLSPELRLLPYMITLGDAVHNFADGLAVGAAFASSWKTGLATSLAVFCHELPHELGDFAALLHAGLSVRQALLLNLASALTAFAGLYVALAVGVSEESEAWILAVATGLFLYVALCDMLPAMLKVRDPRPWLLFLLHNVGLLGGWTVLLLLSLYEDDITF
notes: human ZIP4 zinc transporter, full-length gene, residues 1-647; also called full-length hZIP4/eGFP; full-hZIP4/eGFP; source: HEK293 cells (HEK293T, ATCC CRL-3216), transiently transfected with 50 ng pcDNA3.1 plasmid, measured in living cells; not shown: eGFP (monomeric, A206K), C-terminal, kept
stoichiometry N: 2

B2: truncated human ZIP4 (without ECD) tagged with eGFP (truncated hZIP4/eGFP) (domain or fragment, UniProt Q6P5W5 328-647, looked up)
chain: LYGSLATLLICLCAVFGLLLLTCTGCRGVTHYILQTFLSLAVGAVTGDAVLHLTPKVLGLHTHSEEGLSPQPTWRLLAMLAGLYAFFLFENLFNLLLPRDPEDLEDGPCGHSSHSHGGHSHGVSLQLAPSELRQPKPPHEGSRADLVAEESPELLNPEPRRLSPELRLLPYMITLGDAVHNFADGLAVGAAFASSWKTGLATSLAVFCHELPHELGDFAALLHAGLSVRQALLLNLASALTAFAGLYVALAVGVSEESEAWILAVATGLFLYVALCDMLPAMLKVRDPRPWLLFLLHNVGLLGGWTVLLLLSLYEDDITF
notes: human ZIP4 zinc transporter without the N-terminal extracellular domain (residues 1-327 removed); the eight transmembrane domains, residues 328-647; also called eGFP-tagged truncated ZIP4; hZIP4 lacking the ECD; source: HEK293 cells (HEK293T, ATCC CRL-3216), transiently transfected with 50 ng pcDNA3.1 plasmid, measured in living cells; not shown: eGFP (monomeric, A206K), C-terminal, kept
stoichiometry N: 2
